Earlier results as cited in US20030103959A1, “Methods of providing neuroprotection and/or neurorestoration via the neural activin type IIB receptor” (priority 2001, published 2003).

Tested on: quinolinic acid (QA) rat lesion model of Huntington's Disease
Conditions: Hughes et al. 1999

B1: recombinant human (rh) activin-A: member of the TGF-β superfamily; 28 kDa disulphide-linked homodimer of two βA subunits (protein, UniProt P08476 311-426, looked up)
Inhibin beta A chain: GLECDGKVNICCKKQFFVSFKDIGWNDWIIAPSGYHANYCEGECPSHIAGTSGSSLSFHSTVINHYRMRGHSPFANLKSCCVPTKLRPMSMLYYDDGQNIIKKDIQNMIVEECGCS
For B1, the “neurotrophic effects after administration” value is listed as “potent neurotrophic effects”.
